Several values for one entry are separate records, joined by “and”; a condition that tells them apart may be missing. Equal entries are not always repeated.
Experiments:
[1] = biological target: mouse PROM1 SV8 lacking exon 19a, Flag-tagged (mouse); assay: native gel or EMSA
[2] = biological target: mouse PROM1, photoreceptor-specific isoform SV8 (contains exon 19a), Flag-tagged (mouse); assay: native gel or EMSA

Substance	stoichiometry N [1]	stoichiometry N [2]
mouse PROM1 SV8 lacking exon 19a, Flag-tagged (natural protein)	2 and 4	–
mouse PROM1, photoreceptor-specific isoform SV8 (contains exon 19a), Flag-tagged (natural protein)	–	2 and 4
